Measurements taken from patent US20250340857A1 (SEISMIC THERAPEUTIC, published 2025).

Target: Human IgE antibody (human)
Assay: cell-based or functional assay

B1: FP11 (Fc fusion)
chain: DKTHTCPPCPAPEAAGAPSVFLFPPKPKDTLMISRTPEVTCVVVDVSHEDPEVKFNWYVDGVEVHNAKTKPREEQQNSTYRVVSVLTVLHQDWLNGKEYKCKVSNKALKAPIEKTISKAKGQPREPQVYTLPPSRDELTKNQVSLTCLVKGFYPSDIAVEWESNGQPENNYKTTPPVLDSDGSFFLYSKLTVDKSRWQQGNVFSCSVMHEALHNHYTQKSLSLSPGGGGSGGGGSGGGGSTALGRRKAEDRIKETLWADGVKIDEKDFEHIKSSHEDYFAVEYGKGSGYYDVNKKMDSEDTALCVGAVVTNMFHWWVDQNRENIEKFKKQDPENNGVMKFEGVKEATVDELNHFYRDNRDNYADQSRFFDLIKKHFGNKALNPEELFELYFNGFYYGSSHRYIEDNEPAQNNLFSKVLENNKLLNPERSYGIDGFSNNVINALKSHKVLGLVHTTPLRYRHIISMWGADIDQDGKVKAIYVTDSDDREITFNDNSKRRIGMIRYDVLVDDNGNIRFTGKGATHKEEGAIYAGLYSLSRGDEVWEDYFKKYPEVQENL
EC50 CE-SDS IgE: 68.5 nM

B2: FP121 (Fc fusion)
chain: DKTHTCPPCPAPEAAGAPSVFLFPPKPKDTLMISRTPEVTCVVVDVSHEDPEVKFNWYVDGVEVHNAKTKPREEQQNSTYRVVSVLTVLHQDWLNGKEYKCKVSNKALKAPIEKTISKAKGQPREPQVYTLPPSRDELTKNQVSLTCLVKGFYPSDIAVEWESNGQPENNYKTTPPVLDSDGSFFLYSKLTVDKSRWQQGNVFSCSVMHEALHNHYTQKSLSLSPGGGGSGGGGSGGGGSTALGRRKAEDRIKETLWADGVKIDEKDFEHIKSSHEDYFAVEYGKGSGYYDVNKKMDSEDTALCVGAVVTNMFHWWVDQNRENIEKFKKQDPENNGVMKFEGVKEATVDELNEFYRDNRDNYADQSRFFDLIKKHFGNKALNPEELFELYFNGFYYGSSHRYIEDNEPAQNNLFSKVLENNKLLNPERSYGIDGFSNNVINALKSHKVLGLVYTTPLRYRHIISMWGADIDQDGKVKAIYVTDSDDREITFNDNSKRRIGMIRYDVLVDDNGNIRFTGKGATHKEEGAIYAGLYSLSRGDEVWEDYFKKYPEVQENL
EC50 CE-SDS IgE: 1.22 nM | EC50 MSD IgE: 1.25 nM

B3: FP14 (Fc fusion)
chain: DKTHTCPPCPAPEAAGAPSVFLFPPKPKDTLMISRTPEVTCVVVDVSHEDPEVKFNWYVDGVEVHNAKTKPREEQQNSTYRVVSVLTVLHQDWLNGKEYKCKVSNKALKAPIEKTISKAKGQPREPQVYTLPPSRDELTKNQVSLTCLVKGFYPSDIAVEWESNGQPENNYKTTPPVLDSDGSFFLYSKLTVDKSRWQQGNVFSCSVMHEALHNHYTQKSLSLSPGGGGSGGGGSGGGGSTALGRRKAEDRIKETLWADGVKIDEKDFEHIKSSHEDYFAVEYGKGSGYYDVNKKMDSEDTALCVGAVVTNMFHWWVDQNRENIEKFKKQDPENNGVMKFEGVKEATVDELNHFYRDNRDNYADQSRFFDLIKKHFGNKALNPEELFELYFNGFYYGSSHRYIEDNEPAQNNLFSKVLENNKLLNPERSYGIDGFSNNVINALKSHKVLGLVYTTPLTYRHIISMWGADIDQDGKVKAIYVTDSDDREITFNDNSKRRIGMIRYDVLVDDNGNIRFTGKGATHKEEGAIYAGLYSLSRGDEVWEDYFKKYPEVQENL
EC50 CE-SDS IgE: 31.9 nM

B4: FP15 (Fc fusion)
chain: DKTHTCPPCPAPEAAGAPSVFLFPPKPKDTLMISRTPEVTCVVVDVSHEDPEVKFNWYVDGVEVHNAKTKPREEQQNSTYRVVSVLTVLHQDWLNGKEYKCKVSNKALKAPIEKTISKAKGQPREPQVYTLPPSRDELTKNQVSLTCLVKGFYPSDIAVEWESNGQPENNYKTTPPVLDSDGSFFLYSKLTVDKSRWQQGNVFSCSVMHEALHNHYTQKSLSLSPGGGGSGGGGSGGGGSTALGRRKAEDRIKETLWADGVKIDEKDFEHIKSSHEDYFAVEYGKGSGYYDVNKKMDSEDSALCVGAVVTNMFHWWVDQNRENIEKFKKQDPENNGVMKFEGVKEATVDELNHFYRDNRDNYADQSRFFDLIKKHFGNKALNPEELFELYFNGFYYGSSHRYIEDNEPAQNNLFSKVLENNKLLNPERSYGIDGFSNNVINALKSHKVLGLVHTTPLTYRHIISMWGADIDQDGKVKAIYVTDSDDREITFNDNSKRRIGMIRYDVLVDDNGNIRFTGKGATHKEEGAIYAGLYSLSRGDEVWEDYFKKYPEVQENL
EC50 CE-SDS IgE: 54.7 nM

B5: FP12 (Fc fusion)
chain: DKTHTCPPCPAPEAAGAPSVFLFPPKPKDTLMISRTPEVTCVVVDVSHEDPEVKFNWYVDGVEVHNAKTKPREEQQNSTYRVVSVLTVLHQDWLNGKEYKCKVSNKALKAPIEKTISKAKGQPREPQVYTLPPSRDELTKNQVSLTCLVKGFYPSDIAVEWESNGQPENNYKTTPPVLDSDGSFFLYSKLTVDKSRWQQGNVFSCSVMHEALHNHYTQKSLSLSPGGGGSGGGGSGGGGSTALGRRKAEDRIKETLWADGVKIDEKDFEHIKSSHEDYFAVEYGKGSGYYDVNKKMDSEDTALCVGAVVTNMFHWWVDQNRENIEKFKKQDPENNGVMKFEGVKEATVDELNHFYRDNRDNYADQSRFFDLIKKHFGNKALNPEELFELYFNGFYYGSSHRYIEDNEPAQNNLFSKVLENNKLLNPERSYGIDGFSNNVINALKSHKVLGLVYTTPLRYRHIISMWGADIDQDGKVKAIYVTDSDDREITFNDNSKRRIGMIRYDVLVDDNGNIRFTGKGATHKEEGAIYAGLYSLSRGDEVWEDYFKKYPEVQENL
EC50 CE-SDS IgE: 43.3 nM | EC50 MSD IgE: 0.753 nM

B6: FP17 (Fc fusion)
chain: DKTHTCPPCPAPEAAGAPSVFLFPPKPKDTLMISRTPEVTCVVVDVSHEDPEVKFNWYVDGVEVHNAKTKPREEQQNSTYRVVSVLTVLHQDWLNGKEYKCKVSNKALKAPIEKTISKAKGQPREPQVYTLPPSRDELTKNQVSLTCLVKGFYPSDIAVEWESNGQPENNYKTTPPVLDSDGSFFLYSKLTVDKSRWQQGNVFSCSVMHEALHNHYTQKSLSLSPGGGGSGGGGSGGGGSGGGGSGGGGSGGGGSTALGRRKAEDRIKETLWADGVKIDEKDFEHIKSSHEDYFAVEYGKGSGYYDVNKKMDSEDTALCVGAVVTNMFHWWVDQNRENIEKFKKQDPENNGVMKFNGVKEATVDELNHFYKEYQSNKYADQSRFFDLIKKHFGNKALNPEELFELYFNGFYYGSSHRYIEDNKPAQNNLFSKVLENNKLLNPERSYGIDGFSNNVINALKSHKVLGLVHTTPLRYRHIISMWGADIDQDGKVKAIYVTDSDDREITFNDNSKRRIGMIRYDVLVDDNGNIRFTGKGATHKEEGAIYAGLYSLSRGDEVWEDYFKKYPEVQENL
EC50 CE-SDS IgE: 56.3 nM

B7: FP132 (Fc fusion)
chain: DKTHTCPPCPAPEAAGAPSVFLFPPKPKDTLMISRTPEVTCVVVDVSHEDPEVKFNWYVDGVEVHNAKTKPREEQQNSTYRVVSVLTVLHQDWLNGKEYKCKVSNKALKAPIEKTISKAKGQPREPQVYTLPPSRDELTKNQVSLTCLVKGFYPSDIAVEWESNGQPENNYKTTPPVLDSDGSFFLYSKLTVDKSRWQQGNVFSCSVMHEALHNHYTQKSLSLSPGGGGGSGGGGSTALGRRKAEDRIKETLWADGVKIDEKDFEHIKSSHEDYFAVEYGKGSGYYDVNKKMDSEDTALCVGAVVTNMFHWWVDQNRENIEKFKKQDPENNGVMKFEGVKEATVDELNEFYRDNRDNYADQSRFFDLIKKHFGNKALNPEELFELYFNGFYYGSSHRYIEDNEPAQNNLFSKVLENNKLLNPERSYGIDGFSNNVINALKSHKVLGLVYTTPLRYRHIISMWGADIDQDGKVKAIYVTDSDDREITFNDNSKRRIGMIRYDVLVDDNGNIRFTGKGATHKEEGAIYAGLYSLSRGDEVWEDYFKKYPEVQENL
EC50 CE-SDS IgE: 1.27 nM

B8: FP2 (Fc fusion)
chain: DKTHTCPPCPAPEAAGAPSVFLFPPKPKDTLMISRTPEVTCVVVDVSHEDPEVKFNWYVDGVEVHNAKTKPREEQQNSTYRVVSVLTVLHQDWLNGKEYKCKVSNKALKAPIEKTISKAKGQPREPQVYTLPPSRDELTKNQVSLTCLVKGFYPSDIAVEWESNGQPENNYKTTPPVLDSDGSFFLYSKLTVDKSRWQQGNVFSCSVMHEALHNHYTQKSLSLSPGGGGSGGGGSGGGGSTALGRRKAEDRIKETLWADGVKIDEKDFEHIKSSHEDYFAVEYGKGSGYYDVNKKMDSEDTALCVGAVVTNMFHWWVDQNRENIEKFKKQDPENNGVMKFNGVKEATVDELNHFYKEYQSNKYADQSRFFDLIKKHFGNKALNPEELFELYFNGFYYNSSHRYIEDNKPAQNNLFSKVLENNKLLNPERSYGIDGFSNNVINALKSHKVLGLVHTTPLRYRHIISMWGADIDQDGKVKAIYVTDSDDREITFNDNSKRRIGMIRYDVLVDDNGNIRFTGKGATHKEEGAIYAGLYSLSRGDEVWEDYFKKYPEVQENL
EC50 CE-SDS IgE: 212 nM | EC50 MSD IgE: 140 nM

B9: FP3 (Fc fusion)
chain: DKTHTCPPCPAPEAAGAPSVFLFPPKPKDTLMISRTPEVTCVVVDVSHEDPEVKFNWYVDGVEVHNAKTKPREEQQNSTYRVVSVLTVLHQDWLNGKEYKCKVSNKALKAPIEKTISKAKGQPREPQVYTLPPSRDELTKNQVSLTCLVKGFYPSDIAVEWESNGQPENNYKTTPPVLDSDGSFFLYSKLTVDKSRWQQGNVFSCSVMHEALHNHYTQKSLSLSPGGGGSGGGGSGGGGSTALGRRKAEDRIKETLWADGVKIDEKDFEHIKSSHEDYFAVEYGKGSGYYDVNKKMDSEDTALCVGAVVTNMFHWWVDQNRENIEKFKKQDPENNGVMKFNGVKEATVDELNHFYKEYQSNKYADQSRFFDLIKKHFGNKALNPEELFELYFNGFYYQSSHRYIEDNKPAQNNLFSKVLENNKLLNPERSYGIDGFSNNVINALKSHKVLGLVHTTPLRYRHIISMWGADIDQDGKVKAIYVTDSDDREITFNDNSKRRIGMIRYDVLVDDNGNIRFTGKGATHKEEGAIYAGLYSLSRGDEVWEDYFKKYPEVQENL
EC50 CE-SDS IgE: 71.5 nM | EC50 MSD IgE: 114 nM

B10: FP6 (Fc fusion)
chain: DKTHTCPPCPAPEAAGAPSVFLFPPKPKDTLMISRTPEVTCVVVDVSHEDPEVKFNWYVDGVEVHNAKTKPREEQQNSTYRVVSVLTVLHQDWLNGKEYKCKVSNKALKAPIEKTISKAKGQPREPQVYTLPPSRDELTKNQVSLTCLVKGFYPSDIAVEWESNGQPENNYKTTPPVLDSDGSFFLYSKLTVDKSRWQQGNVFSCSVMHEALHNHYTQKSLSLSPGGGGSGGGGSGGGGSTALGRRKAEDRIKETLWADGVKIDEKDFEHIKSSHEDYFAVEYGKGSGYYDVNKKMDSEDTALCVGAVVTNMFHWWVDQNRENIEKFKKQDPENNGVMKFEGVKEATVDELNHFYKEYQSNKYADQSRFFDLIKKHFGNKALNPEELFELYFNGFYYQSSHRYIEDNEPAQNNLFSKVLENNKLLNPERSYGIDGFSNNVINALKSHKVLGLVHTTPLTYRHIISMWGADIDQDGKVKAIYVTDSDDREITFNDNSKRRIGMIRYDVLVDDNGNIRFTGKGATHKEEGAIYAGLYSLSRGDEVWEDYFKKYPEVQENL
EC50 MSD IgE: 99.4 nM
